Assays:
[1] = target: T1, alphaVbeta3 integrin, native human, on rhabdomyosarcoma (RD) cells and on human umbilical vein endothelial … (human, UniProt P06756 31-1048; P05106 27-788); experiment: flow cytometry on RD cells expressing alphaVbeta3; reference chimeric HLMC
T1 construct: whole, on cells; also called αVβ3; native human β3
Procedure: (§1) The binding of NS0-derived HLMC Composite Human Antibody™ variants to rhabdomyosarcoma (RD) cells expressing alphaVbeta3 integrin was assessed in a flow cytometry binding assay. Briefly, a subconfluent monolayer of RD cells was prepared and incubated in serum free medium for 24 hours prior to harvest. […] Cells were resuspended into a suitable volume of cold FACS buffer (1% FBS/0.01% sodium azide/PBS) to yield a final cell density of 4×10⁶ cells/ml.
(§2) The plates were incubated at 4° C. for 1 hour. Cells were washed with FACS buffer, resuspended in 100 μl of secondary antibody (Sigma Cat. No. P8047, goat anti-human IgG (γ chain specific; PE conjugated) and incubated for 1 hour at 4° C. Cells were washed twice, resuspended in a final volume of 175 μl FACS buffer and transferred to FACS tubes. Fluorescence was measured by flow cytometry and data plotted as normalized % positive events (gated in R2).

[2] = target: T1, alphaVbeta3 integrin, native human, on …; experiment: flow cytometry on RD cells expressing alphaVbeta3, PE anti-human IgG; EC50 = concentration where 50% of cells gated in R2
Procedure: as §1, §2

T1 sequence (P06756 31-1048, chain 1 of 2): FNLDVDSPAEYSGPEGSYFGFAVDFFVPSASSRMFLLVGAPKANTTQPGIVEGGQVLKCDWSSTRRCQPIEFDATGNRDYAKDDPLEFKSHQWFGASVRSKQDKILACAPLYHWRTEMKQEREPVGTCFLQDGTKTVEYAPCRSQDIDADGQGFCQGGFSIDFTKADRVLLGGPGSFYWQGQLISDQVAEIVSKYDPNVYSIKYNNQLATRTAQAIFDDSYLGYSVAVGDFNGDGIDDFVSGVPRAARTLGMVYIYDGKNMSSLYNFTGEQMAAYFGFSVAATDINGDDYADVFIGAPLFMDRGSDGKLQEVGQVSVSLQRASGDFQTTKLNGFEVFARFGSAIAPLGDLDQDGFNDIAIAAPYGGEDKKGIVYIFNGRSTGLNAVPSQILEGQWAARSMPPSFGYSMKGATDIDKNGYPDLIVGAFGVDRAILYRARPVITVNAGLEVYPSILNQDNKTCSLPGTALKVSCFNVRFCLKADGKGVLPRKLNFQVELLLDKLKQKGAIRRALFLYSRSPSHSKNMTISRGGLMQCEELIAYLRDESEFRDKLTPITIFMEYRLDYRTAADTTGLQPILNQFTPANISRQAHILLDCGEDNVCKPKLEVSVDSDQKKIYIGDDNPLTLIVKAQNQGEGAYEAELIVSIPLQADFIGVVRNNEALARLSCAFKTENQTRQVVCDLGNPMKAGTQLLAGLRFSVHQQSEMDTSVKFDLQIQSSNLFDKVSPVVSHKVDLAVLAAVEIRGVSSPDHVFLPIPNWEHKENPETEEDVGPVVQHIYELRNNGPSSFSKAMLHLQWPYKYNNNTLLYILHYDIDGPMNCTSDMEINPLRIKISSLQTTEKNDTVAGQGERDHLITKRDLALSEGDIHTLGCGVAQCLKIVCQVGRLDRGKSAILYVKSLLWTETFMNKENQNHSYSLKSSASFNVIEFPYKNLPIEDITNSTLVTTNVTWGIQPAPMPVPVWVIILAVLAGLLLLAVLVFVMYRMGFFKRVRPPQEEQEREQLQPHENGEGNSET
T1 sequence (P05106 27-788, chain 2 of 2): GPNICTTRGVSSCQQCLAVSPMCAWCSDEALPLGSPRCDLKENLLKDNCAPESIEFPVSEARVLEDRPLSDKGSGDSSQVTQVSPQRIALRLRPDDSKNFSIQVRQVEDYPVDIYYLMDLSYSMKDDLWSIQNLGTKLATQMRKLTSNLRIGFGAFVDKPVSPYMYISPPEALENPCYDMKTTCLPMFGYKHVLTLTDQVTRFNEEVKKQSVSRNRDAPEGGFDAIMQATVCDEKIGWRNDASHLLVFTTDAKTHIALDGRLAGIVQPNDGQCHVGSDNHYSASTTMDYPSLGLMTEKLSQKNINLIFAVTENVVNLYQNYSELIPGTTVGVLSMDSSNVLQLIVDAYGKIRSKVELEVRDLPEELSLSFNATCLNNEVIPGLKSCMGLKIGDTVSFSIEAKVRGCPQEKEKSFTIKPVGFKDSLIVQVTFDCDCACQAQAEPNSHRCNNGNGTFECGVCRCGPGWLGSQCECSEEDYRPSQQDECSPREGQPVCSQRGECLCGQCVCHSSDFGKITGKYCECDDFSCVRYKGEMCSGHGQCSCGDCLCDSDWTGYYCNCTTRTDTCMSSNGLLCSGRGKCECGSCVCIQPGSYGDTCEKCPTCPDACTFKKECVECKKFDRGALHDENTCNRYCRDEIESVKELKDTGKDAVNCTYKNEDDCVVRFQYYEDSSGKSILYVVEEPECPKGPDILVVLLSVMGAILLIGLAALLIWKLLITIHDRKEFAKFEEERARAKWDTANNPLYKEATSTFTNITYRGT

B1: VH3/Vκ2 Composite Human Antibody variant of HLMC (antibody, human IgG1, kappa, V domains shown)
VH: QAQLVQSGAEVKKPGASVKVSCKASGYLFSNSWMNWVKQRRGAGLEWIGRIFPGDGDTNYNGKFKGRATITADKSTSTAYMELSSLRSEDTAVYFCARWGLTRDRRLYLDYWGQGTTVTVSS
VL: DIVMTQSPDSLAVSLGERATINCKSSQSLLYSSNQKNYLAWYQQKPGQAPRLLIYWASTRESGVPDRFTGSGSGTDFTLTISSLQAEDVAVYYCKQYYTYPLTFGQGTKLEIKR
notes: also called VH3/Vk2
In the case of B1, the “relative binding score (EC50 of variant divided by EC50 of chimeric HLMC)” value [1] is reported as 13.2 ratio and the EC50 [2] is reported as 47.4 nM.

B2: VH1/Vκ2 Composite Human Antibody variant of HLMC (antibody, human IgG1, kappa, V domains shown)
VH: QAQLVQSGPELKKPGASVKVSCKASGYLFSNSWMNWVKQRPGAGLEWIGRIFPGDGDTNYNGKFKGRATITADKSTSTAYMELSSLRSEDSAVYFCARWGLTRDRRLYLDYWGQGTTVTVSS
VL: DIVMTQSPDSLAVSLGERATINCKSSQSLLYSSNQKNYLAWYQQKPGQAPRLLIYWASTRESGVPDRFTGSGSGTDFTLTISSLQAEDVAVYYCKQYYTYPLTFGQGTKLEIKR
notes: also called VH1/Vk2
With B2 the “relative binding score (EC50 of variant divided by EC50 of chimeric HLMC)” value [1] was 1.52 ratio and the EC50 [2] was 5.43 nM.

B3: VH1/Vκ3 Composite Human Antibody variant of HLMC (antibody, human IgG1, kappa, V domains shown)
VH: QAQLVQSGPELKKPGASVKVSCKASGYLFSNSWMNWVKQRPGAGLEWIGRIFPGDGDTNYNGKFKGRATITADKSTSTAYMELSSLRSEDSAVYFCARWGLTRDRRLYLDYWGQGTTVTVSS
VL: DIVMTQSPDSLAVSLGERATINCKSSQSLLYSSNQKNYLAWYQQKPGQAPRLLIYWASTRESGVPDRFSGSGSGTDFTLTISSLQAEDVAVYYCKQYYTYPLTFGQGTKLEIKR
notes: also called VH1/Vk3
In the case of B3, the “relative binding score (EC50 of variant divided by EC50 of chimeric HLMC)” value [1] is reported as 1.14 ratio and the EC50 [2] is reported as 4.08 nM.

B4: VH2/Vκ1 Composite Human Antibody variant of HLMC (antibody, human IgG1, kappa, V domains shown)
VH: QAQLVQSGPEVKKPGASVKVSCKASGYLFSNSWMNWVKQRPGAGLEWIGRIFPGDGDTNYNGKFKGRATITADKSTSTAYMELSSLRSEDTAVYFCARWGLTRDRRLYLDYWGQGTTVTVSS
VL: DIVMTQSPDSLVVSLGERATINCKSSQSLLYSSNQKNYLAWYQQKSGQAPRLLIYWASTRESGVPDRFTGSGSGTDFTLTISSLQAEDVAVYYCKQYYTYPLTFGQGTKLEIKR
notes: also called VH2/Vk1
For B4, the “relative binding score (EC50 of variant divided by EC50 of chimeric HLMC)” value [1] was 1.27 ratio and the EC50 [2] was 4.55 nM.

B5: VH2/Vκ2 Composite Human Antibody variant of HLMC (antibody, human IgG1, kappa, V domains shown)
VH: QAQLVQSGPEVKKPGASVKVSCKASGYLFSNSWMNWVKQRPGAGLEWIGRIFPGDGDTNYNGKFKGRATITADKSTSTAYMELSSLRSEDTAVYFCARWGLTRDRRLYLDYWGQGTTVTVSS
VL: DIVMTQSPDSLAVSLGERATINCKSSQSLLYSSNQKNYLAWYQQKPGQAPRLLIYWASTRESGVPDRFTGSGSGTDFTLTISSLQAEDVAVYYCKQYYTYPLTFGQGTKLEIKR
notes: also called VH2/Vk2
With B5 the “relative binding score (EC50 of variant divided by EC50 of chimeric HLMC)” value [1] was 1.37 ratio and the EC50 [2] was 4.92 nM.

B6: VH2/Vκ3 Composite Human Antibody variant of HLMC (antibody, human IgG1, kappa, V domains shown)
VH: QAQLVQSGPEVKKPGASVKVSCKASGYLFSNSWMNWVKQRPGAGLEWIGRIFPGDGDTNYNGKFKGRATITADKSTSTAYMELSSLRSEDTAVYFCARWGLTRDRRLYLDYWGQGTTVTVSS
VL: DIVMTQSPDSLAVSLGERATINCKSSQSLLYSSNQKNYLAWYQQKPGQAPRLLIYWASTRESGVPDRFSGSGSGTDFTLTISSLQAEDVAVYYCKQYYTYPLTFGQGTKLEIKR
notes: also called VH2/Vk3
B6 was tested, and the “relative binding score (EC50 of variant divided by EC50 of chimeric HLMC)” value [1] was 1.03 ratio and the EC50 [2] was 3.7 nM.

B7: VH3/Vκ1 Composite Human Antibody variant of HLMC (antibody, human IgG1, kappa, V domains shown)
VH: QAQLVQSGAEVKKPGASVKVSCKASGYLFSNSWMNWVKQRRGAGLEWIGRIFPGDGDTNYNGKFKGRATITADKSTSTAYMELSSLRSEDTAVYFCARWGLTRDRRLYLDYWGQGTTVTVSS
VL: DIVMTQSPDSLVVSLGERATINCKSSQSLLYSSNQKNYLAWYQQKSGQAPRLLIYWASTRESGVPDRFTGSGSGTDFTLTISSLQAEDVAVYYCKQYYTYPLTFGQGTKLEIKR
notes: also called VH3/Vk1
B7 was tested, and the “relative binding score (EC50 of variant divided by EC50 of chimeric HLMC)” value [1] was 1.35 ratio and the EC50 [2] was 4.85 nM.

B8: VH3/Vκ3 Composite Human Antibody variant of HLMC (antibody, human IgG1, kappa, V domains shown)
VH: QAQLVQSGAEVKKPGASVKVSCKASGYLFSNSWMNWVKQRRGAGLEWIGRIFPGDGDTNYNGKFKGRATITADKSTSTAYMELSSLRSEDTAVYFCARWGLTRDRRLYLDYWGQGTTVTVSS
VL: DIVMTQSPDSLAVSLGERATINCKSSQSLLYSSNQKNYLAWYQQKPGQAPRLLIYWASTRESGVPDRFSGSGSGTDFTLTISSLQAEDVAVYYCKQYYTYPLTFGQGTKLEIKR
notes: also called VH3/Vk3
B8 was tested, and the “relative binding score (EC50 of variant divided by EC50 of chimeric HLMC)” value [1] was 0.87 ratio and the EC50 [2] was 3.13 nM.

B9: VH4/Vκ1 Composite Human Antibody variant of HLMC (antibody, human IgG1, kappa, V domains shown)
VH: QAQLVQSGAEVKKPGASVKVSCKASGYLFSNSWMNWVKQRRGAGLEWIGRIFPGDGDTNYNGKFKGRVTITADKSTSTAYMELSSLRSEDTAVYFCARWGLTRDRRLYLDYWGQGTTVTVSS
VL: DIVMTQSPDSLVVSLGERATINCKSSQSLLYSSNQKNYLAWYQQKSGQAPRLLIYWASTRESGVPDRFTGSGSGTDFTLTISSLQAEDVAVYYCKQYYTYPLTFGQGTKLEIKR
notes: also called Vh4/Vk1; VH4/Vk1
With B9 the “relative binding score (EC50 of variant divided by EC50 of chimeric HLMC)” value [1] was 0.87 ratio and the EC50 [2] was 3.12 nM.

B10: VH4/Vκ3 Composite Human Antibody variant of HLMC (antibody, human IgG1, kappa, V domains shown)
VH: QAQLVQSGAEVKKPGASVKVSCKASGYLFSNSWMNWVKQRRGAGLEWIGRIFPGDGDTNYNGKFKGRVTITADKSTSTAYMELSSLRSEDTAVYFCARWGLTRDRRLYLDYWGQGTTVTVSS
VL: DIVMTQSPDSLAVSLGERATINCKSSQSLLYSSNQKNYLAWYQQKPGQAPRLLIYWASTRESGVPDRFSGSGSGTDFTLTISSLQAEDVAVYYCKQYYTYPLTFGQGTKLEIKR
notes: also called VH4/Vk3
In the case of B10, the “relative binding score (EC50 of variant divided by EC50 of chimeric HLMC)” value [1] is reported as 0.57 ratio and the EC50 [2] is reported as 2.03 nM.

B11: VH5/Vκ1 Composite Human Antibody variant of HLMC (antibody, human IgG1, kappa, V domains shown)
VH: QAQLVQSGAEVKKPGASVKVSCKASGYLFSNSWMNWVKQRRGAGLEWIGRIFPGDGDTNYNGKFKGRVTITADKSTSTAYMELSSLRSEDTAVYYCARWGLTRDRRLYLDYWGQGTTVTVSS
VL: DIVMTQSPDSLVVSLGERATINCKSSQSLLYSSNQKNYLAWYQQKSGQAPRLLIYWASTRESGVPDRFTGSGSGTDFTLTISSLQAEDVAVYYCKQYYTYPLTFGQGTKLEIKR
notes: also called VH5/Vk1
With B11 the “relative binding score (EC50 of variant divided by EC50 of chimeric HLMC)” value [1] was 1.23 ratio and the EC50 [2] was 4.42 nM.

B12: VH5/Vκ3 Composite Human Antibody variant of HLMC (antibody, human IgG1, kappa, V domains shown)
VH: QAQLVQSGAEVKKPGASVKVSCKASGYLFSNSWMNWVKQRRGAGLEWIGRIFPGDGDTNYNGKFKGRVTITADKSTSTAYMELSSLRSEDTAVYYCARWGLTRDRRLYLDYWGQGTTVTVSS
VL: DIVMTQSPDSLAVSLGERATINCKSSQSLLYSSNQKNYLAWYQQKPGQAPRLLIYWASTRESGVPDRFSGSGSGTDFTLTISSLQAEDVAVYYCKQYYTYPLTFGQGTKLEIKR
notes: also called VH5/Vk3
For B12, the “relative binding score (EC50 of variant divided by EC50 of chimeric HLMC)” value [1] was 0.88 ratio and the EC50 [2] was 3.15 nM.

From US20150259422A1 (UNIVERSITY OF NORTH CAROLINA AT CHAPEL HILL, published 2015)
